Test results: US20160185865A1 (Dana-Farber, published 2016)
Substitutions are numbered along the chain they refer to. Names and notes keep the numbering of the source.

Legend:
[1] = target: T1, human CC chemokine receptor 4 (CCR4) (human, UniProt P51679 1-360); experiment: FACS titration (GMFI), 0 to 100 µg/mL in two-fold steps; cells not named in the legend
T1 construct: whole, on cells; also called hCCR4
T1 sequence (looked up): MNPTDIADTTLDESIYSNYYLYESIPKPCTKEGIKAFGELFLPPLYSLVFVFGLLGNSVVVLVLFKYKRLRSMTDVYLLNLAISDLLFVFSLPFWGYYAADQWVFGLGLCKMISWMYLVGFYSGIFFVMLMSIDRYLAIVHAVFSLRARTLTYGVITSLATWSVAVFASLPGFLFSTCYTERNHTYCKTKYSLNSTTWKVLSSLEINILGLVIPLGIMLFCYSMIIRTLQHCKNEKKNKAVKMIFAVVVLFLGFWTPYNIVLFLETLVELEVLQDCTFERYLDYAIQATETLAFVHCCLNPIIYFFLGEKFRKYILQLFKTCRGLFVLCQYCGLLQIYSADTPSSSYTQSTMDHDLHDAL

[2] = target: T1, human CC chemokine receptor 4 (CCR4); experiment: FACS, CCR4+ Mac-1 cells, dose dependent binding curve
[3] = target: T1, human CC chemokine receptor 4 (CCR4); experiment: binding curve of FIG. 20B; cells not given

B1: h1567 VL-CDR3 mutant M1 (H105Q) (Fc fusion, not shown: a dimerising Fc or GST)
scFv: QVQLVQSGAEVKKPGASVKVSCKASGYTFASYYMHWMRQAPGQGLEWIGWINPGNVNTKYNEKFKGRATLTVDTSTNTAYMELSSLRSEDTAVYYCARSTYYRPLDYWGQGTLVTVSSGGGGSGGGGSGGGGSDIVMTQSPDSLAVSLGERATINCKSSQSILYSSNQKNYLAWYQQKPGQSPKLLIYWASTRESGVPDRFSGSGSGTDFTLTISSLQAEDVAVYYCQQYLSSYTFGQGTKLEIK
EC50 (read off the curve) [1]: ~0.5 µg/mL

B2: Antibody 2-3 scFv-Fc (Fc fusion, not shown: a dimerising Fc or GST)
scFv: B1 scFv with Y32A, Y33W, Q228H, L231M
notes: also called Ab2-3 scFv-Fc; Mab 2-3
EC50 [2]: 1.39 nM

B3: mAb2-3 (Ab2-3IgG) (antibody, V domains shown)
VH: QVQLVQSGAEVKKPGASVKVSCKASGYTFASAWMHWMRQAPGQGLEWIGWINPGNVNTKYNEKFKGRATLTVDTSTNTAYMELSSLRSEDTAVYYCARSTYYRPLDYWGQGTLVTVSS
VL: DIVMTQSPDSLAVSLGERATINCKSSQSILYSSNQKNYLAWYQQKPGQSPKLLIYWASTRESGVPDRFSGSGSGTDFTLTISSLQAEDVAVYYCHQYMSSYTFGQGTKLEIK
notes: IgG form made by cloning VH and VL into the TCAE5.3 vector (human IgG1); also called APC-labeled mAb2-3
EC50 [3]: 0.35 nM

B4: KW0761 (humanized KM2760 antibody) (antibody, V domains shown)
VH: EVQLVESGGDLVQPGRSLRLSCAASGFIFSNYGMSWVRQAPGKGLEWVATISSASTYSYYPDSVKGRFTISRDNAKNSLYLQMNSLRVEDTALYYCGRHSDGNFAFGYWGQGTLVTVSS
VL: DVLMTQSPLSLPVTPGEPASISCRSSRNIVHINGDTYLEWYLQKPGQSPQLLIYKVSNRFSGVPDRFSGSGSGTDFTLKISRVEAEDVGVYYCFQGSLLPWTFGQGTKVEIK
EC50 [3]: 2.19 nM
